This note sets out measurements from PMC2929599 (Biochemistry, 2009).

By Ki is commonly meant a measure of affinity in units of concentration, obtained from inhibition or displacement. The low end stands for higher affinity, the high end for lower affinity. For orientation: Km means the substrate concentration at which the rate is half of its maximum. Usually kcat stands for the number of substrate molecules converted per active site and unit of time at saturation. Broadly, the kcat/Km is the second-order rate constant that governs catalysis at low substrate concentration.

The target of series [1] is T1, hTHEM2 (human hotdog-fold thioesterase THEM2, thioesterase superfamily member 2) (Homo sapiens, UniProt Q9NPJ3).
T1 sequence (Q9NPJ3 1-140): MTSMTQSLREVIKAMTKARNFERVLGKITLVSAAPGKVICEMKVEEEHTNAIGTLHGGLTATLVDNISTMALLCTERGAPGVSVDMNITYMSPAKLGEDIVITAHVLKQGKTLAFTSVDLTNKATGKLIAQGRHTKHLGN
In words: steady-state competitive inhibition, DTNB thioesterase assay. In kind it is biochemical.

Substrate in the series “purified protein”: CCCCCCCCCCCCCC(=O)SCCNC(=O)CCNC(=O)[C@H](O)C(C)(C)COP(=O)(O)OP(=O)(O)OC[C@H]1O[C@@H](n2cnc3c(N)ncnc32)[C@H](O)[C@@H]1OP(=O)(O)O
Briefly: purified protein. Particulars: pH 7.5; 25.0 °C.

Substrate in series [2]: CC(C)(COP(=O)(O)OP(=O)(O)OC[C@H]1O[C@@H](n2cnc3c(N)ncnc32)[C@H](O)[C@@H]1OP(=O)(O)O)[C@@H](O)C(=O)NCCC(=O)NCCSC(=O)Cc1cccc(O)c1
In words: steady-state hydrolysis kinetics. In kind it is biochemical, Homo sapiens. The following applies: pH 7.5; 25.0 °C.

Substrate in series [3]: CCCCCCCCCC(=O)SCCNC(=O)CCNC(=O)[C@H](O)C(C)(C)COP(=O)(O)OP(=O)(O)OC[C@H]1O[C@@H](n2cnc3c(N)ncnc32)[C@H](O)[C@@H]1OP(=O)(O)O
Briefly: steady-state hydrolysis kinetics. In kind it is biochemical, Homo sapiens. The following applies: pH 7.5; 25.0 °C.

Substrate in series [4]: CCCCCC/C=C\CCCCCCCC(=O)SCCNC(=O)CCNC(=O)[C@H](O)C(C)(C)COP(=O)(O)OP(=O)(O)OC[C@H]1O[C@@H](n2cnc3c(N)ncnc32)[C@H](O)[C@@H]1OP(=O)(O)O
In words: steady-state hydrolysis kinetics. In kind it is biochemical, Homo sapiens. The following applies: pH 7.5; 25.0 °C.

Substrate in series [5]: CCCCCCCC/C=C\CCCCCCCC(=O)SCCNC(=O)CCNC(=O)[C@H](O)C(C)(C)COP(=O)(O)OP(=O)(O)OC[C@H]1O[C@@H](n2cnc3c(N)ncnc32)[C@H](O)[C@@H]1OP(=O)(O)O
In words: steady-state hydrolysis kinetics. The format is biochemical, Homo sapiens. Particulars: pH 7.5; 25.0 °C.

Substrate in series [6]: CCCCCCCCCCCC(=O)SCCNC(=O)CCNC(=O)[C@H](O)C(C)(C)COP(=O)(O)OP(=O)(O)OC[C@H]1O[C@@H](n2cnc3c(N)ncnc32)[C@H](O)[C@@H]1OP(=O)(O)O
Briefly: steady-state hydrolysis kinetics. In kind it is biochemical, Homo sapiens. The following applies: pH 7.5; 25.0 °C.

Substrate in series [7]: CC(C)(COP(=O)(O)OP(=O)(O)OC[C@H]1O[C@@H](n2cnc3c(N)ncnc32)[C@H](O)[C@@H]1OP(=O)(O)O)[C@@H](O)C(=O)NCCC(=O)NCCSC(=O)Cc1ccc(O)c(O)c1
In words: steady-state hydrolysis kinetics. In kind it is biochemical, Homo sapiens. The following applies: pH 7.5; 25.0 °C.

Consider `CCNC(=O)CCNC(=O)[C@H](O)C(C)(C)COP(=O)(O)OP(=O)(O)OC[C@H]1O[C@@H](n2cnc3c(N)ncnc32)[C@H](O)[C@@H]1OP(=O)(O)O` [desulfoCoA], for which the Ki in series [1] came to 9 µM.

B1: hTHEM2 (human hotdog-fold thioesterase THEM2, thioesterase superfamily member 2) (Homo sapiens) (protein)
chain: MTSMTQSLREVIKAMTKARNFERVLGKITLVSAAPGKVICEMKVEEEHTNAIGTLHGGLTATLVDNISTMALLCTERGAPGVSVDMNITYMSPAKLGEDIVITAHVLKQGKTLAFTSVDLTNKATGKLIAQGRHTKHLGN
Turning to B1, the Km in the series “purified protein” was 5 µM; in series [2], 41 µM; in series [3], 4.9 µM; in series [4], 9 µM; in series [5] it was 9 µM; in series [6], 9.9 µM. For the same molecule, the Km in series [7] is 10 µM. Further, the kcat in “purified protein” turned out to be 0.02 s⁻¹; in series [2] it was 1.4 ± 0.1 s⁻¹; in series [3], 0.016 ± 0.001 s⁻¹; in series [4] it was 0.017 ± 0.001 s⁻¹; in series [5], 0.011 ± 0.001 s⁻¹; in series [6] it was 0.019 ± 0.001 s⁻¹. Besides, in series [7], the turnover number (kcat) came to 0.19 ± 0.01 s⁻¹. The kcat/Km stood at 4000 M⁻¹ s⁻¹ in “purified protein”; 35000 M⁻¹ s⁻¹ in series [2]; 3300 M⁻¹ s⁻¹ in series [3]; 1900 M⁻¹ s⁻¹ in series [4]; 1300 M⁻¹ s⁻¹ in series [5]; 1900 M⁻¹ s⁻¹ in series [6]. In addition, the kcat/Km in series [7] came out at 18000 M⁻¹ s⁻¹.
